Assay results from patent US20260258149A1.

Biological target: BSA-STn
Assay: SPR, BSA-STn-serine immobilised on the chip as ligand, antibody injected as analyte

Kd	koff	kon	Binder
33.2 nM	0.00568 s⁻¹	171000 M⁻¹ s⁻¹	humanized anti-STn antibody clone V3 (antibody, V domains shown) VH: QVQLQESGPGLVKPSQTLSLTCSVIGYSITSGYYWNWIRQPPGKGLEWIGSINYDGSNIYNPSLKDRVTISRDTSKNQFSLKLSSVTAADTAVYYCARGGDYWGQGTTVTVSS VL: EIVLTQSPATLSLSPGERATLSCSASSSVSYMHWFQQKPGQAPRRWIYDTSKRATGVPARFSGSGSGTDYTLTISSLEPEDFAAYYCQQWSSDPPMLTFGGGTKLEIK
31.7 nM	0.00553 s⁻¹	174000 M⁻¹ s⁻¹	humanized anti-STn antibody clone V1 (antibody, V domains shown) VH: QVQLQESGPGLVKPSQTLSLTCTVIGYSITSGYYWNWIRQPPGKGLEWIGSINYDGSNIYNPSLKSRVTISRDTSKNQFSLKLSSVTAADTAVYYCARGGDYWGQGTTVTVSS VL: EIVLTQSPATLSLSPGERATLSCSASSSVSYMHWFQQKPGQAPRRWIYDTSKRATGVPARFSGSGSGTDYTLTISSLEPEDFAAYYCQQWSSDPPMLTFGGGTKLEIK
39.4 nM	0.00519 s⁻¹	132000 M⁻¹ s⁻¹	humanized anti-STn antibody clone V2 (antibody, V domains shown) VH: QVQLQESGPGLVKPSQTLSLTCSVIGYSITSGYYWNWIRQPPGKGLEWIGSINYDGSNIYNPSLKDRVTISRDTSKNQFSLKLSSVTAADTAVYYCARGGDYWGQGTTVTVSS VL: DIVLTQSPAILSLSPGERATLSCSASSSVSYMHWFQQKSGQAPKRWIYDTSKLASGVPARFSGSGSGTDYTLTISSLEAEDFAAYYCQQWSSDPPMLTFGGGTKLEIK
